One series deals with casein. Put plainly: Optimum temperature for activity with casein. To be noted: casein 0.8%, 30 minutes. The series is classed as biochemical. As to the method:
Specific activities for TLP-ste and the 8-fold mutant were determined using casein (0.8%) as a substrate in 50 mM Tris-HCl (pH 7.5), 5 mM CaCl2 at 37° C. […] (pH 7.0), 5 mM CaCl2, 5% or 1% DMSO, 0.5% isopropanol, 0.01% Triton X-100, 50 mM NaCl, with […] of substrate, by measuring the decrease in absorption at 345 nm (Î345=−317 M^−1·cm^−1). Stock solutions of the furylacryloylated dipeptides, (Sigma, St. Louis, […].) were prepared by dissolving 3-(-2-furylacryloyl)-L-glycyl-L-leucine amide (FaGLa) and 3-(-2-furylacryloyl)-L-alanyl-L-phenylalanine amide (FaAFa) in DMSO. The kcat/Km ratios of the enzymes were determined by varying the enzyme concentrations (over a 50 fold range) under pseudo-first order conditions by measuring the initial activity, essentially according to the method described by Feder^30. The Ki for phosphoramidon (N-[a-L-rhamnopyrano-syl-oxyhydroxyphophinyl]-L-leucyl-L-tryptophan) was determined by a 30 minute preincubation of a 100 pM protease solution with varying concentrations of the inhibitor (10^−8 to 10^−3 M), in 50 mM MOPS (pH 7.0), 5 mM CaCl2, 50 mM NaCl, prior to the addition of the furylacryloated substrate. For determination of the Ki FaAFa was used as the substrate. Since the Km of the substrate for the enzyme is higher than the concentration used, IC50 values were taken to be equal to Ki values. The optimum temperature for activity was determined by incubating proteases with casein (0.8%) in 50 mM Tris-HCl (pH 7.5), 5 mM CaCl2, at different temperatures for 30 minutes, after which the amount of released peptides, indicative for activity, was measured^11.

The format of series [1] is physicochemical. Conditions: buffer, pH 5.3. As to the method: Stabilities of TLPs were determined at different temperatures. Shown are the first-order inactivation curves for TLP-ste incubated at 80° C. (Δ) and 90° C. (+), thermolysin at 90° C. (Δ), and the 8-fold mutant at 100° C. (●), respectively. […] Samples, taken at the various time points, were quickly cooled on ice (15 s) and transferred to 50° C. to prevent cold denaturation. Residual activity was determined using casein (0.8%) as a substrate in 50 mM TrisHCl (pH 7.5), 5 mM CaCl2 as described previously (Eijsink, V. G. H., Veltman, O. R., Aukema, W., Vriend, G. & Venema, G. Nature Struct. Biol. 2, 374-379 (1995)).

The nature of series [2]: Thermal stability (T50) at varying CaCl2 concentrations.
Protocol: Thermal stability was measured, using varying CaCl2concentrations in the standard assay buffer (20 mM Na acetate, pH 5.3, 0.01% Triton X-100, 0.5% isopropanol, 62.5 mM NaCl). T50 is the temperature of incubation at which 50 percent of the initial proteolytic activity is lost during a 30 minutes incubation.
A short description of series [3]: First order thermal inactivation of TLP-ste variants at 75° C. in 5 mM or 0.2 mM CaCl2.
Where [4] appears, read: 0.2 mM CaCl2, 30 minutes incubation.
Setting [5] is: 0.5 mM CaCl2, 30 minutes incubation.
Where [6] appears, read: 2.5 mM CaCl2, 30 minutes incubation.
Where [7] appears, read: 5.0 mM CaCl2, 30 minutes incubation.
The mark [8] stands for this setting: 7.5 mM CaCl2, 30 minutes incubation.
The mark [9] stands for this setting: 12.5 mM CaCl2, 30 minutes incubation.

B1: TLN: thermolysin, protease secreted by Bacillus thermoproteolyticus, SEQUENCE ID No. 2 (protein, UniProt P00800 233-548, looked up)
Thermolysin: ITGTSTVGVGRGVLGDQKNINTTYSTYYYLQDNTRGNGIFTYDAKYRTTLPGSLWADADNQFFASYDAPAVDAHYYAGVTYDYYKNVHNRLSYDGNNAAIRSSVHYSQGYNNAFWNGSQMVYGDGDGQTFIPLSGGIDVVAHELTHAVTDYTAGLIYQNESGAINEAISDIFGTLVEFYANKNPDWEIGEDVYTPGISGDSLRSMSDPAKYGDPDHYSKRYTGTQDNGGVHINSGIINKAAYLISQGGTHYGVSVVGIGRDKLGKIFYRALTQYLTPTSNFSQLRAAAVQSATDLYGSTSQEVASVKQAFDAVGVK
For the molecule B1, the “Topt (optimum temperature for activity)” value with casein came to 77 °C. Moreover, in series [1], the “half-life 80° C.” value is >200 min, the “half-life 90° C.” value stood at 12.5 min and the “half-life 100° C.” value is <2 min.

B2: D57S: TLP-ste variant with Asp57 of the Ca3 site replaced by Ser (protein, listed as Bacillus sp.)
chain: VAGASTVGVGRGVLGDQKYINTTYSGYYYLQDNTRGSGIFTYDGRNRTVLPGSLWTSGDNQFTASYDAAAVDAHYYAGVVYDYYKNVHGRLSYDGSNAAIRSTVHYGRGYNNAFWNGSQMVYGDGDGQTFLPFSGGIDVVGHELTHAVTDYTAGLVYQNESGAINEAMSDIFGTLVEFYANRNPDWEIGEDIYTPGVAGDALRSMSDPAKYGDPDHYSKRYTGTQDNGGVHTNSGIINKAAYLLSQGGVHYGVSVNGIGRDKMGKIFYRALVYYLTPTSNFSQLRAACVQAAADLYGSTSQEVNSVKQAFNAVGVY
For the molecule B2, the “dependence of stability on the calcium concentration” value in series [2] is “reduced this calcium dependence”. Also, the T50 in series [2] (setting [4]) was 65.9 °C; in series [2] (setting [5]), 67.3 °C; in series [2] (setting [6]) it was 67.5 °C; in series [2] (setting [7]) it was 68.2 °C; in series [2] (setting [8]), 68.8 °C; in series [2] (setting [9]), 69.4 °C. Further, in series [2] (lowest calcium concentration tested), the “stability effect of the mutation on the wild-type enzyme” value is reported as “slightly stabilised”. Further, the “Half-life ratio 5 mM/0.2 mM” value in series [3] is given as 1.5.

B3: D57S-T63F-A69P: TLP-ste variant combining D57S with T63F-A69P (protein, listed as Bacillus sp.)
chain: VAGASTVGVGRGVLGDQKYINTTYSGYYYLQDNTRGSGIFTYDGRNRTVLPGSLWTSGDNQFFASYDAPAVDAHYYAGVVYDYYKNVHGRLSYDGSNAAIRSTVHYGRGYNNAFWNGSQMVYGDGDGQTFLPFSGGIDVVGHELTHAVTDYTAGLVYQNESGAINEAMSDIFGTLVEFYANRNPDWEIGEDIYTPGVAGDALRSMSDPAKYGDPDHYSKRYTGTQDNGGVHTNSGIINKAAYLLSQGGVHYGVSVNGIGRDKMGKIFYRALVYYLTPTSNFSQLRAACVQAAADLYGSTSQEVNSVKQAFNAVGVY
Turning to B3, in series [2], the “dependence of stability on the calcium concentration” value was “largely independent of the calcium concentration”. Further, the T50 in series [2] (setting [4]) is 74.6 °C; in series [2] (setting [5]), 75.4 °C; in series [2] (setting [6]) it was 76.2 °C; in series [2] (setting [7]), 76.5 °C; in series [2] (setting [8]), 76.7 °C; in series [2] (setting [9]) it was 77.2 °C. In addition, the “stability compared with the wild-type enzyme” value in series [2] (at lower calcium concentrations) is reported as “considerably more stable than the wild-type enzyme”. For the same molecule, the “Half-life ratio 5 mM/0.2 mM” value in series [3] came out at 1.5.

B4: T63F-A69P: TLP-ste variant with the combined stabilising T63F-A69P mutation (protein, listed as Bacillus sp.)
chain: VAGASTVGVGRGVLGDQKYINTTYSGYYYLQDNTRGSGIFTYDGRNRTVLPGSLWTDGDNQFFASYDAPAVDAHYYAGVVYDYYKNVHGRLSYDGSNAAIRSTVHYGRGYNNAFWNGSQMVYGDGDGQTFLPFSGGIDVVGHELTHAVTDYTAGLVYQNESGAINEAMSDIFGTLVEFYANRNPDWEIGEDIYTPGVAGDALRSMSDPAKYGDPDHYSKRYTGTQDNGGVHTNSGIINKAAYLLSQGGVHYGVSVNGIGRDKMGKIFYRALVYYLTPTSNFSQLRAACVQAAADLYGSTSQEVNSVKQAFNAVGVY
B4: the “dependence of stability on the calcium concentration” value in series [2] is on record as “depended strongly on the calcium concentration”. For the same molecule, the T50 turned out to be 77.8 °C in series [2] (setting [4]); 80.9 °C in series [2] (setting [5]); 86.6 °C in series [2] (setting [6]); 87.2 °C in series [2] (setting [7]); 89.7 °C in series [2] (setting [8]); 90.2 °C in series [2] (setting [9]). The “Half-life ratio 5 mM/0.2 mM” value in series [3] was 19.

For the origin of these results see patent publication US6518054B1, “Metallo-endopeptidases” (Rijksuniverstteit Te Groningen, priority 1997, dated 2003).
